Numbered stars: 1 amine (or outer) side, 2 acyl side, 3 side chain; on linkers, the order of the positions; unused ones are H or OH. Bridge positions count the residues as written; N and C are the ends. Side chains are listed from the residue outwards. Peptide text beside a SMILES is read from it. * marks the point of attachment. X1 = C/C(=N\O)C(C)(C)NCCC(CCNC(C)(C)/C(C)=N/O)CCN*; Glutaryl = O=C(CCCC(=O)[*:2])[*:1]; X2 = NC(=O)COCC(=O)NCCOCCOCCOCCN*
How the values were obtained:
αvβ5 integrins = conditions: background statement, no reference printed; cited from earlier work
Description: As such, it holds promise as a novel diagnostic imaging agent for a range of pathological conditions. […] Methods A phase 1, randomised, placebo-controlled study assessed the safety, biodistribution and radiation dosimetry of ^99mTc-maraciclatide in healt ...

healthy volunteers [1] = experiment: Phase 1 safety assessment (adverse events, vital signs, ECG, laboratory parameters)
Procedure: In 2003, a phase 1, placebo-controlled, observer-blinded, randomised, single ascending-dose study was performed. The study aimed to assess the safety of three intravenous levels of maraciclatide and the biodistribution and radiation dosimetry of ^99mTc-maraciclatide in healthy volunteers, assessing the potential of ^99mTc-maraciclatide as a radiopharmaceutical for diagnostic imaging.
Safety data on vital signs (heart rate, blood pressure, temperature, and oxygen saturation), electrocardiograms (ECG), laboratory parameters and physical examinations (general appearance, lung, abdominal, cardiovascular, and neurological exam by a qualified clinician) were measured prior to administration, and at multiple time points up to 7 days following administration. Based on clinical assessment, new abnormal or worsening clinical findings were defined as a change from the participant’s normal baseline to abnormal. All abnormal changes were recorded as adverse events (AEs).
Safety assessments were performed by an observer blinded to the administration of the placebo and ^99mTc-maraciclatide. A thorough review of safety data was performed before the decision was made to escalate to the higher dose in participants.

clinical = experiment: clinical; parameters: species or system human; conditions: human, in vivo, iv, total radioactivity
Procedure: (§1) On the day of administration before the administration of ^99mTc-maraciclatide, a transmission scan was obtained. The counts acquired from a flood or line source with and without the participant on the imaging couch were utilised to calculate body attenuation. Following intravenous administration of ^99mTc-maraciclatide, whole-body gamma scintigraphy was performed at 5 min post-administration up to 24 h as described below (section 2.6). Additional anterior and posterior planar images of the chest (45 min and 1 h 45 min, post-administration) and the pelvis (1 h 15 min and 2 h post-administration) were obtained for each participant.
(§2) Regions of interest (ROIs) were selected from organs and tissues on the whole-body scintigraphic images showing significant activity uptake. ^99mTc activity in ROIs was calculated using the methodology described in Medical Internal Radiation Dose (MIRD) Pamphlet No. 16 [15].
(§3) To calculate ^99mTc-maraciclatide ex-vivo activity, blood, plasma, urine, and faeces were collected at various time points after administration. Blood and plasma samples were collected at 10 min, 30 min, 1 h, 2 h, 4 h, 8 h, 24 h, 48 h, 72 h, and 7 days post-administration. Concentrations of maraciclatide in plasma were assayed using the LC-MS method (LOQ was 0.5 ng/ml). Urine was also collected at the same time points (if possible) up to 24 h post-administration. Faecal samples were collected as voided for up to 24 h post-administration. Assayed samples for ^99mTc-maraciclatide content were then measured using a gamma counter.
(§4) The biodistribution of ^99mTc was determined by whole-body conjugate view imaging in conjunction with extracorporeal activity measurements in whole blood, plasma, voided urine, and faeces, as described above. Simultaneous anterior and posterior whole-body images were acquired beginning nominally at 5 min, 15 min, 30 min, 60 min, 90 min, 3 h, 6 h and 12 h post-administration. A final anterior and posterior image pair was acquired at a ninth time-point between 21 and 24 h post-administration. Quantitative analysis of the incorporated data at multiple time points yielded biodistribution data consisting of activity in 10 specified organs or tissues [brain, salivary glands, thyroid gland, lungs, heart, spleen, liver, gallbladder, gastrointestinal (GI) tract and urinary bladder]. The remaining ^99mTc activity in other tissues was grouped within a ‘remaining tissues’ category. For each organ or tissue of interest, the ^99mTc activity was decay-corrected to the administration time and normalised to the injected activity. The temporal variation of this normalised and decay-corrected activity was then fit by one of several analytical functions, which was then integrated to yield the cumulated activity for that organ normalised to the injected activity.

healthy volunteers [2] = experiment: clinical; parameters: species or system human; conditions: in vivo
Procedure: as §1, §2, §3, §4

healthy volunteers [3] = experiment: clinical; parameters: species or system human; conditions: in vivo; remark: listed apart in the source
Procedure: as §3
Concentrations of maraciclatide in plasma were assayed using the LC-MS method (LOQ was 0.5 ng/ml). The mean apparent terminal elimination half-life was approximately 1 h. Overall, systemic clearance was approximately 6.7 ml/min/kg, whilst the mean apparent volume of distribution was approximately 520 ml/kg. The majority of ^99mTc activity was excreted through the urinary pathway and GI tract, 55% and 16%, respectively.

integrin receptor αvβ3 = conditions: background statement, no reference printed; listed as 99mTc-Maraciclatide; cited from earlier work
healthy volunteers [4] = test system: healthy volunteers; parameters: species or system human; conditions: in vivo
Procedure: The mean absorbed doses per unit injected activity to 24 target organs were evaluated from this matrix of normalised cumulated activity values, using the MIRD schema, for a 70-kg adult human. The cumulated activity in the urinary bladder contents and voided urine was calculated using a dynamic urinary bladder model for a 3.5-h voiding interval. Cumulative activities in the GI tract were calculated using a dynamic model that assumed that activity enters the GI tract solely through hepatobiliary drainage. […] At later times, it was possible to identify the ^99mTc associated with the GI tract as predominantly that in the luminal contents. The overall time course of ^99mTc activity in a ROI set over the GI tract was typically that of an initial rapid decrease which then slowed to approach the amount present in the luminal contents. This observation was considered to be due to an initial rapid uptake and subsequent tissue clearance of ^99mTc from the GI tract walls combined with the slow introduction of ^99mTc into the GI contents via hepatobiliary transport. The activity in the luminal contents was isolated by first modelling the GI tract wall tissue clearance by the renormalised time course of activity measured in a ROI set over a region of soft tissue (the quadriceps femoris in one leg). […] The ED per unit injected activity was subsequently calculated from the ensemble of organ-absorbed dose values.
The effective dose (ED) was calculated from the ensemble of organ-absorbed dose values at 7.8 ± 0.8 μSv/MBq.

Structure (SMILES): C/C(=N\O)C(C)(C)NCCC(CCNC(=O)CCCC(=O)NCCCC[C@@H]1NC(=O)CSC[C@@H](C(=O)NCCOCCOCCOCCNC(=O)COCC(N)=O)NC(=O)[C@H](Cc2ccccc2)NC(=O)[C@@H]2CSSC[C@H](NC1=O)C(=O)N[C@@H](CCCNC(=N)N)C(=O)NCC(=O)N[C@@H](CC(=O)O)C(=O)N2)CCNC(C)(C)/C(C)=N/O (some centres unmarked) [^99mTc-maraciclatide, metal not drawn] ({CH2CO}-K([Glutaryl-X1])CRGDCFC-X2; disulfide 2-6; thioether N-8; N-terminus and C-terminus assumed)
- affinity to αvβ5 (αvβ5 integrins): high affinity
- number of non-serious AEs (healthy volunteers [1]; 24 participants receiving protocol-stipulated dose): 31
- deaths (healthy volunteers [1]; all dose groups, single i.v.): no deaths
- intensity of related AEs (healthy volunteers [1]; in vivo): mild intensity
- laboratory, ECG and vital signs parameters (healthy volunteers [1]; in vivo): no clinically important safety trends
- participants experiencing non-serious AEs (number) (healthy volunteers [1]; in vivo): 17
- participants experiencing non-serious AEs (percent) (healthy volunteers [1]; in vivo): 71%
- participants with AEs attributed to the agent (healthy volunteers [1]; in vivo): 6
- participants with AEs that required medical treatment (number) (healthy volunteers [1]; in vivo): 3
- participants with AEs that required medical treatment (percent) (healthy volunteers [1]; in vivo): 13%
- participants with reduction in red blood cell count (number) (healthy volunteers [1]; in vivo): 4
- participants with reduction in red blood cell count (percent) (healthy volunteers [1]; in vivo): 17%
- time to resolution of related AEs (healthy volunteers [1]; in vivo): ≤ 25 h
- dose excreted (clinical; 99mTc activity excreted through the GI tract): 16%
- dose excreted (clinical; 99mTc activity excreted through the urinary pathway): 55%
- normalised cumulated activity, combined walls of the small intestine and upper and lower large intestine (healthy volunteers [2]): 0.9 ± 0.2 MBq*h/MBq
- normalised cumulated activity, contents of the upper large intestine (healthy volunteers [2]): 0.3 ± 0.1 MBq*h/MBq
- normalised cumulated activity, liver (healthy volunteers [2]): 0.8 ± 0.2 MBq*h/MBq
- normalised cumulated activity, lung (healthy volunteers [2]): 0.4 ± 0.1 MBq*h/MBq
- uptake in the red bone marrow (healthy volunteers [2]): too low to be quantified
- systemic urinary clearance (healthy volunteers [3]): approximately 6.7 ml/min/kg
- affinity to αvβ3 (integrin receptor αvβ3): high affinity
- mean effective dose (ED) per unit injected activity (healthy volunteers [4]): 7.8 μSv/MBq
- Absorbed dose per unit administered activity, Adrenal glands (healthy volunteers [4]; iv): 4.7 μGy/MBq
- Absorbed dose per unit administered activity, Bone surfaces (healthy volunteers [4]; iv): 4.5 μGy/MBq
- Absorbed dose per unit administered activity, Brain (healthy volunteers [4]; iv): 1.3 μGy/MBq
- Absorbed dose per unit administered activity, Breasts (healthy volunteers [4]; iv): 1.8 μGy/MBq
- Absorbed dose per unit administered activity, Gallbladder wall (healthy volunteers [4]; iv): 8.7 μGy/MBq
- Absorbed dose per unit administered activity, Heart wall (healthy volunteers [4]; iv): 6.1 μGy/MBq
- Absorbed dose per unit administered activity, Kidneys (healthy volunteers [4]; iv): 16.5 μGy/MBq
- Absorbed dose per unit administered activity, Liver (healthy volunteers [4]; iv): 11.1 μGy/MBq
- Absorbed dose per unit administered activity, Lower large intestine wall (healthy volunteers [4]; iv): 11.7 μGy/MBq
- Absorbed dose per unit administered activity, Lungs (healthy volunteers [4]; iv): 7.3 μGy/MBq
- Absorbed dose per unit administered activity, Muscle (healthy volunteers [4]; iv): 2.8 μGy/MBq
- Absorbed dose per unit administered activity, Ovaries (healthy volunteers [4]; iv): 6.3 μGy/MBq
- Absorbed dose per unit administered activity, Pancreas (healthy volunteers [4]; iv): 5.0 μGy/MBq
- Absorbed dose per unit administered activity, Red marrow (healthy volunteers [4]; iv): 3.0 μGy/MBq
- Absorbed dose per unit administered activity, Skin (healthy volunteers [4]; iv): 1.5 μGy/MBq
- Absorbed dose per unit administered activity, Small intestine wall (healthy volunteers [4]; iv): 8.9 μGy/MBq
- Absorbed dose per unit administered activity, Spleen (healthy volunteers [4]; iv): 16.1 μGy/MBq
- Absorbed dose per unit administered activity, Stomach (healthy volunteers [4]; iv): 3.8 μGy/MBq
- Absorbed dose per unit administered activity, Testes (healthy volunteers [4]; iv): 2.8 μGy/MBq
- Absorbed dose per unit administered activity, Thymus gland (healthy volunteers [4]; iv): 2.5 μGy/MBq
- Absorbed dose per unit administered activity, Thyroid gland (healthy volunteers [4]; iv): 4.9 μGy/MBq
- Absorbed dose per unit administered activity, Upper large intestine wall (healthy volunteers [4]; iv): 14.7 μGy/MBq
- Absorbed dose per unit administered activity, Urinary bladder wall (healthy volunteers [4]; iv): 36.2 μGy/MBq
- Absorbed dose per unit administered activity, Uterus (healthy volunteers [4]; iv): 7.5 μGy/MBq

Reference: paper PMC10916747, “Safety, biodistribution and radiation dosimetry of the Arg-Gly-Asp peptide ^99mTc-maraciclatide in healthy volunteers” (Nuclear Medicine Communications, 2024)
